Consider three molecules from patent publication US20240084003A1 (SIMCERE ZAIMING PHARMACEUTICAL, published 2024).

In test [1] the target is T1, human CD22-ECD-His protein (human, UniProt P20273 20-687).
T1 construct: Made in house in HEK293E; also called hCD22-ECD-His; recombinant human CD22-ECD His protein; not shown: His tag
T1 sequence: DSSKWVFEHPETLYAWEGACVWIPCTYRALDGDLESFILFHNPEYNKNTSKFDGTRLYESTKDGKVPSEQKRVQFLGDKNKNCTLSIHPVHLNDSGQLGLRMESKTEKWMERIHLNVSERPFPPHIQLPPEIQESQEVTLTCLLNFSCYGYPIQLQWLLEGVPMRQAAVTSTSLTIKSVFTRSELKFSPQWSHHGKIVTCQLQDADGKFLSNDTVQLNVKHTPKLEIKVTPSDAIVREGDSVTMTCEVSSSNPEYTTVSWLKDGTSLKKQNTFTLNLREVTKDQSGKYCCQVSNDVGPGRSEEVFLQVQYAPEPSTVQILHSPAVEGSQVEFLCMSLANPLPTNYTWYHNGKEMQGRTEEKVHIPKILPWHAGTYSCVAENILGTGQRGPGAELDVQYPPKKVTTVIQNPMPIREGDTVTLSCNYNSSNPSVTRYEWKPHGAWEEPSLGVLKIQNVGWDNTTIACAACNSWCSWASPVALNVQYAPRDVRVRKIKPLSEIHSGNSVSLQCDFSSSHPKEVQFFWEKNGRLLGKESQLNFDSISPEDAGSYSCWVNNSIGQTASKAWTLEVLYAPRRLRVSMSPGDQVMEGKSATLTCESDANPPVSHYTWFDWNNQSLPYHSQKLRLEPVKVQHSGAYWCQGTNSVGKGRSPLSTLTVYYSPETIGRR
Nature of the test: ELISA, Ab 0.01 nM. The protocol:
(§1) In order to detect the binding activity of CD22 human-murine chimeric antibodies to CD22 protein, the purified human CD22-ECD-His protein obtained in Example 2 was diluted with PBS to a final concentration of 2 μg/mL, and then added to 96-well ELISA plate at 100 μl/well. The plate was sealed with plastic film and incubated overnight at 4° C., the plate was washed 2 times with PBS the next day, and then a blocking solution [PBS+2% (w/w) BSA] was added for blocking at room temperature for 2 hours. […] After incubation at 37° C. for 2 hours, the plate was washed 3 times with PBS. HRP (horseradish peroxidase)-labeled secondary antibody (purchased from Sigma, catalog number: A0170) was added, and incubated at 37° C. for 2 hours, and the plate was washed 5 times with PBS. TMB substrate was added at 50 μl/well, and incubated at room temperature for 30 minutes, then a stop solution (1.0 N HCl) was added at 50 μl/well.
Background: An ELISA detects its analyte on a solid surface through an enzyme-linked reagent.

Test [2] has as its target T1, human CD22-ECD-His protein. The experiment in a line: ELISA, Ab 0.10 nM. The method, then:
as §1

Test [3] deals with T1, human CD22-ECD-His protein. Nature of the test: ELISA, Ab 0.001 nM. The method, then: as §1
Test [4] deals with T1, human CD22-ECD-His protein. Nature of the test: ELISA, Ab 10.00 nM. The method, then:
as §1

Test [5] deals with T1, human CD22-ECD-His protein. The experiment in a line: ELISA, Ab 0.0001 nM. The method, then: as §1
The target in test [6] is T1, human CD22-ECD-His protein. The experiment in a line: ELISA, Ab 100.00 nM. The protocol:
as §1

For test [7], the target named is T1, human CD22-ECD-His protein. Nature of the test: ELISA, Ab 0.00001 nM. The method, then:
as §1

Test [8] concerns the target T1, human CD22-ECD-His protein. Nature of the test: ELISA, human CD22-ECD-His coated. The method, then:
as §1

Test [9] concerns the target T2, murine CD22 protein (ACROBiosystems, SI2-M52Ha) (murine, UniProt P35329 22-708).
T2 construct: extracellular domain; also called murine CD22-ECD; murine CD22-ECD-His
T2 sequence (looked up): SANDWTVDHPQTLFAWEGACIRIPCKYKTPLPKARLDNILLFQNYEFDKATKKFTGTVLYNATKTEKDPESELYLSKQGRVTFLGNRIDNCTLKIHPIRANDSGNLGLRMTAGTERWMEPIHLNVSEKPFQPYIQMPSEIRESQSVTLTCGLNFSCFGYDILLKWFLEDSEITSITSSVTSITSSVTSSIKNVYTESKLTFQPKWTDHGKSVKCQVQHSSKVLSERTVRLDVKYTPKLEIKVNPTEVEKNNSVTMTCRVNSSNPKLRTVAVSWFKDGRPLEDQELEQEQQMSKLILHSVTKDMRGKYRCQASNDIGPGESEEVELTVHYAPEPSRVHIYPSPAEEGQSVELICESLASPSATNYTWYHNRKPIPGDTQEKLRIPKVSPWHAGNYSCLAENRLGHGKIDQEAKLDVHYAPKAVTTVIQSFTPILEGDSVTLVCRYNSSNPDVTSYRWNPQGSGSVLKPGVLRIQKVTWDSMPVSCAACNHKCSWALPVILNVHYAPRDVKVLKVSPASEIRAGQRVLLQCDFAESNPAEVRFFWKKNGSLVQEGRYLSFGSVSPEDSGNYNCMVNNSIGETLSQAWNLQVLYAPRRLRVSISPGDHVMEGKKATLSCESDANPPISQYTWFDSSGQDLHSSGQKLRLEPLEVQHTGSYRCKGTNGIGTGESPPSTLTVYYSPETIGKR
The experiment in a line: ELISA, murine CD22-ECD-His coated. The protocol:
as §1
(§2) In order to detect the species cross-binding activity of the chimeric antibodies, an ELISA plate was coated with commercial murine CD22 protein (ACROBiosystems, catalog number: SI2-M52Ha) and monkey CD22 protein (ACROBiosystems, catalog number: SI2-R52Ha), respectively, and the ELISA detection was performed according to the method in Example 5.1.

In test [10] the target is T3, monkey CD22 protein (ACROBiosystems, SI2-R52Ha) (monkey (rhesus monkey in paragraph 148), UniProt H9G1X2 18-686).
T3 construct: extracellular domain; also called monkey CD22-ECD; monkey CD22-ECD-His
T3 sequence: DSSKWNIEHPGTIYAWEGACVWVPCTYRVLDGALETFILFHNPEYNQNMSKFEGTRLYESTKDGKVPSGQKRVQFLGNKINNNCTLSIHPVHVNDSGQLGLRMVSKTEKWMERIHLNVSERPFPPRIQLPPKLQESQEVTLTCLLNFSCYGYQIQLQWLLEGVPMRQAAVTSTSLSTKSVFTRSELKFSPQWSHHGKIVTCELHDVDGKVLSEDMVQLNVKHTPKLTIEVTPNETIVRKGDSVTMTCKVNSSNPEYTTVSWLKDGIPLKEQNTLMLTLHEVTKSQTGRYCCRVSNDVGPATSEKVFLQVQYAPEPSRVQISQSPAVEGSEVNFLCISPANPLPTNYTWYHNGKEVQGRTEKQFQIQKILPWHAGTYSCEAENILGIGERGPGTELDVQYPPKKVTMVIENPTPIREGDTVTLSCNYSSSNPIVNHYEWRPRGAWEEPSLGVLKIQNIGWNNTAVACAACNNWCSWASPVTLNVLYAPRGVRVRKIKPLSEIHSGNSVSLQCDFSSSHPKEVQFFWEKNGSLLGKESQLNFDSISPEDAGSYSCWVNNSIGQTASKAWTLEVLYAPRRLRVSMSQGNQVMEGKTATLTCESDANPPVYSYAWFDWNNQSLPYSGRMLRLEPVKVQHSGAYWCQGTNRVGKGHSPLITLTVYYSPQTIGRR
Nature of the test: ELISA, monkey CD22-ECD-His coated. The protocol: as §1, §2

The next test concerns the target T4, human CD22 domain5-7-His (human, UniProt P20273 414-687).
T4 construct: also called hCD22 domain5-7-His; not shown: His tag
T4 sequence: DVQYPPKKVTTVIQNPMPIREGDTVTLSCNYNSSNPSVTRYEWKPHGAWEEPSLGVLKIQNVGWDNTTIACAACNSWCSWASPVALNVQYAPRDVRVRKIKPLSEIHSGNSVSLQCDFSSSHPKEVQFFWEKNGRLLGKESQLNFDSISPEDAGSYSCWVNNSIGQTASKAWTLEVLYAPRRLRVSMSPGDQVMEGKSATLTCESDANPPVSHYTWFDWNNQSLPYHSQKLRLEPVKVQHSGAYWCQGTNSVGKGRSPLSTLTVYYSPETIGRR
Nature of the test: ELISA, human CD22 domain5-7-His coated.

The target of the next test is T5, human CD22 domain1-4-His (human, UniProt P20273 20-425).
T5 construct: also called hCD22 domain1-4-His; not shown: His tag
T5 sequence: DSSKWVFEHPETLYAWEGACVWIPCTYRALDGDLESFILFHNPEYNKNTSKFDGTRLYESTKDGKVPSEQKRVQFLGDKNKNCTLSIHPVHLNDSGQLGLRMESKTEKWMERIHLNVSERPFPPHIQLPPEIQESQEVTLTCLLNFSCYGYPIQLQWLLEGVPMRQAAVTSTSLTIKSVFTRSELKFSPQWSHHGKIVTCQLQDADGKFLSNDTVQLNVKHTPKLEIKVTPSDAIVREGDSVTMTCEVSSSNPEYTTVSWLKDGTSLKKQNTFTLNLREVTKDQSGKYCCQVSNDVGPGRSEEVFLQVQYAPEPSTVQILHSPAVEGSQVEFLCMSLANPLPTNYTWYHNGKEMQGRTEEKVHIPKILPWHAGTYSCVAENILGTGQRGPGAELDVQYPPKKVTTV
The experiment in a line: ELISA, human CD22 domain1-4-His coated.

B1: F1.250.16 (antibody, human IgG1, kappa, V domains shown)
VH: QVQLQQSGAEQVKPGASVKMSCKASGYTFTTYPIEWMKQNHGESLDWIGNIHPYNDDTEYNEKFKGKATLTVEKSSNTVFLELSRLTSDDSAVYYCVRGDYYNSRYWYFDVWGTGTTVTVSS
VL: DIVMTQSQKFMSTTVGDRVSITCKAGQNVRTAVAWYQQKPGQSPKLLIYSASTRYIGVPERFTGSGSGTDFTLTITNMQSEDLADYFCQQYSSFPLTFGTGTKLELKR
notes: Human-murine chimeric IgG1, kappa
Consider B1, for which the OD450 in test [1] amounted to 2.24 OD450; in test [2] it was 2.58 OD450; in test [3], 0.86 OD450; in test [4], 2.56 OD450; in test [5], 0.21 OD450; in test [6], 3.07 OD450. In [7], this molecule displayed an OD450 of 0.12 OD450. Moreover, the “EC50 (read off the curve)” value in test [8] and in test [10] was ~0.02 nM each time. In addition, the binding result (in test [9]; in the test with human CD22 domain5-7-His) was “no binding (tested: 100 nM)” in each case.

B2: F2.151.13 (antibody, human IgG1, lambda, V domains shown)
VH: QVHLQQPGTELMKPGASVKLSCKATGYTFRDYWLEWVKQRPGHGLEWIGEILPGSGNAYYNEKFKGKATFTADTSSNTAYMQLSSLTTEDSAIYYCARVYSNWYFDAWGKGTTVTVSS
VL: QAVVTQESALTTSPGETVTLTCRSSTGAVTTSNYANWVQEKPDHLFTGLIGGTNNQAPGVPARFSGSLIGDKAALTISGAQTEDEAIYFCALWFSNHWVFGGGTKLTVLG
notes: Human-murine chimeric IgG1, lambda
On to B2, for which the OD450 in test [1] stood at 2.1 OD450; in test [2], 2.55 OD450; in [3], 0.64 OD450; in test [4] it was 2.6 OD450; in test [5], 0.2 OD450; in [6], 3.28 OD450. Also, the OD450 in [7] is 0.1 OD450. The EC50 (read off the curve) (usually the concentration giving half of the maximal effect) is ~0.04 nM in [8] and ~0.05 nM in the test with human CD22 domain5-7-His. In addition, the binding result (in test [9]; in the test with human CD22 domain1-4-His) was “no binding (tested: 100 nM)” throughout.

B3: F1.192.1 (antibody, human IgG1, kappa, V domains shown)
VH: AVQLQQSGVELVRPGASVKLSCTGSDFNIKEDYIHWVKQRPEQGLEWIGWIDPENGDTEYASKFQGKATITADTSSNTAYLQLSSLTSEDTAVYYCATYGSLDYWGQGTTLTVSS
VL: DIKMTQSPSSMYAFLGERVTITCKASQGINSFLTWFQQKPGKSPKTLIYRANRLVDGVPSRFSGSGSGQDYSLTISSLEYEDVGIYYCLQYDEFPRTFGGGTKLEIKR
notes: as for B1
B3: the OD450 in [1] is 1.79 OD450; in test [2], 2.52 OD450; in test [3], 0.46 OD450; in test [4], 2.57 OD450; in test [5], 0.1 OD450; in test [6], 2.71 OD450. In [7], this molecule showed an OD450 of 0.06 OD450. For the same molecule, the half-maximal effective concentration (EC50 (read off the curve)) in [8] is ~0.05 nM; with human CD22 domain5-7-His it was ~0.1 nM. Moreover, the binding result (in [9]; with human CD22 domain1-4-His) was “no binding (tested: 100 nM)” each time.
